Test results taken from article PMC8840469, “Directed Evolution of a Nonheme Diiron N-oxygenase AzoC for Improving Its Catalytic Efficiency toward Nitrogen Heterocycle Substrates” (Molecules, 2022).

Tests used:
[1] = tested on: T1, COc1ncc(N)cn1; assay: HPLC, initial velocity, Michaelis-Menten fit; assay type: biochemical, Streptomyces chattanoogensis; conditions: 30 °C, 1 h, 5.2 μM enzyme, substrate 0.05-2 mM, general in vitro reaction (not restated for kinetics): NADH 0.1 mM, PMS 0.75 mM, 20 mM HEPES pH 7.5
T1 construct: nonheme diiron enzyme
Source text: (§1) HPLC, initial velocity, Michaelis-Menten fit on AzoC

[2] = tested on: T2, AzoC; assay: HPLC, initial velocity, Michaelis-Menten fit; assay type: biochemical, Streptomyces chattanoogensis; conditions: 30 °C, 1 h; 5.2 μM enzyme; substrate 0.05-2 mM; general in vitro reaction (not restated for kinetics): NADH 0.1 mM, PMS 0.75 mM, 20 mM HEPES pH 7.5, but 3 μM enzyme; read-out: Substrate: 2-methoxypyrimidin-5-amine / Km
T2 construct: nonheme diiron enzyme
Source text: as §1

| Km [2] [µM] | Compound | Km [1] [µM] | kcat [1] [s⁻¹] | kcat/Km [1] [M⁻¹ s⁻¹] |
| --- | --- | --- | --- | --- |
|  | AzoC (Streptomyces chattanoogensis) | 650 ± 120 | 0.018 ± 0.0014 | 27.7 |
| 510 ± 59 | COc1ncc(N)cn1 [compound 3, 2-methoxypyrimidin-5-amine] |  |  |  |
